Data on 15 molecules can be found in patent US20120172293A1 (Takeda / Millennium, published 2012).

The target in experiment [1] is human Y2 receptor (human) (UniProt P49146). Kind of experiment: cell-based or functional assay.
Experiment [2] has the same target. Description: RBA: [125I]-PYY displacement, hY2R/CHO membranes.
Experiment [3] has as its target T1, human Y2 receptor (human, UniProt P49146 1-381).
T1 construct: whole, on cells; used as membrane fraction of hY2R/CHO cells; also called human NPY2R; hY2R
T1 sequence (looked up): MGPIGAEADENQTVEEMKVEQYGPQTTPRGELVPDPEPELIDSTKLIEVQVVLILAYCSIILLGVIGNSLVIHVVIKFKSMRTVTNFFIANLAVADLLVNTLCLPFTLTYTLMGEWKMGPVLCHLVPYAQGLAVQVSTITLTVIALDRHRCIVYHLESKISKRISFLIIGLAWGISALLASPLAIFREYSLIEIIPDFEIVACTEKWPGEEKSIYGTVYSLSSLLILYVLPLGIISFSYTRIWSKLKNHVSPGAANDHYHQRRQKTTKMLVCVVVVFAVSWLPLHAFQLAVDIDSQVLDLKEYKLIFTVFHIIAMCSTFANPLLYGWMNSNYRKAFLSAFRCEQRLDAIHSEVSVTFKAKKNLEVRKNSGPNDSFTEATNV
Kind of experiment: RBA: [125I]-PYY displacement, hY2R/CHO membranes. The method, boiled down: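 Bound radioligand was collected by filtration on PEI-treated GF/C filters, washed with Tris/MgCl₂/NaCl/CHAPS buffer pH 7.4, and counted by scintillation; IC₅₀ values were calculated.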

Experiment [4] deals with T1, human Y2 receptor. Description: cell-based or functional assay.

Starred links: 1 amine or outer side, 2 acyl side, 3 side chain; linkers in the order of their positions; H or OH if unused. Non-standard residues stand in square brackets, D forms with d. No end group written: not given here. *: point of attachment. Tyr(Me) = O-methyltyrosine, COc1ccc(C[C@H](N[*:1])C(=O)[*:2])cc1; Amidino = amidino group, N=C(N)*; Cha = N[C@@H](CC1CCCCC1)C(=O)O; 4Amb = NCc1ccc(C(=O)O)cc1; Inp = O=C(O)C1CCNCC1

Take “Ac-[Hyp23, D-Pro24, Cha27,28,36, Aib31]-PYY(23-36) (peptide)”: in experiment [1], the GBA EC50 Ratio (vs PYY(3-36)), [35S]GTPγS came out at 5. The IC50 Ratio (vs PYY(3-36)) in experiment [2] came to 7.3.

Regarding “Ac-[Lys(Me2)23, D-Pro24, Cha27,28,36, Aib31]-PYY(23-36) (peptide)”, in experiment [1], the GBA EC50 Ratio (vs PYY(3-36)), [35S]GTPγS turned out to be 1.3. Also, the IC50 Ratio (vs PYY(3-36)) in experiment [2] worked out at 0.92.

Turning to “[(PEG2)23, D-Pro24, Cha27,28,36, Aib31]-PYY(23-36) (peptide)”, the GBA EC50 Ratio (vs PYY(3-36)), [35S]GTPγS in experiment [1] worked out at 0.9. Besides, in experiment [2], the IC50 Ratio (vs PYY(3-36)) came to 0.9.

Consider “[βAla23, D-Pro24, Cha27,28,36, Aib31]-PYY(23-36) (peptide)”, for which the GBA EC50 Ratio (vs PYY(3-36)), [35S]GTPγS in experiment [1] was found to be 1.2. Moreover, in experiment [2], the IC50 Ratio (vs PYY(3-36)) was determined as 1.7.

As for “Ac-[Iva23, D-Pro24, Cha27,28,36, Aib31]-PYY(23-36) (peptide)”, the GBA EC50 Ratio (vs PYY(3-36)), [35S]GTPγS in experiment [1] is 17. Besides, the IC50 Ratio (vs PYY(3-36)) in experiment [2] was 13.

As to “Ac-[Hse23, D-Pro24, Cha27,28,36, Aib31]-PYY(23-36) (peptide)”, in experiment [1], the GBA EC50 Ratio (vs PYY(3-36)), [35S]GTPγS came to 1.6. The IC50 Ratio (vs PYY(3-36)) in experiment [2] was found to be 2.5.

Turning to “Ac-[D-Iva23, D-Pro24, Cha27,28,36, Aib31]-PYY(23-36) (peptide)”, in experiment [1], the GBA EC50 Ratio (vs PYY(3-36)), [35S]GTPγS came to 31. The IC50 Ratio (vs PYY(3-36)) in experiment [2] was determined as 20.

“[Lys(Ac)23, D-Pro24, Cha27,28,36, Aib31]-PYY(23-36) (peptide)”: the GBA EC50 Ratio (vs PYY(3-36)), [35S]GTPγS in experiment [1] amounted to 2.5. Besides, the IC50 Ratio (vs PYY(3-36)) in experiment [2] is 5.4.

As to “Ac-[Aad23, D-Pro24, Cha27,28,36, Aib31]-PYY(23-36) (peptide)”, the GBA EC50 Ratio (vs PYY(3-36)), [35S]GTPγS in experiment [1] was 1.2. Besides, the IC50 Ratio (vs PYY(3-36)) in experiment [2] amounted to 2.8.

As for “N-4-Pyridiniyl-[Pic(4)23, D-Pro24, Cha27,28,36, Aib31]-PYY(23-36) (peptide)”, in experiment [1], the GBA EC50 Ratio (vs PYY(3-36)), [35S]GTPγS was determined as 3.4. Also, in experiment [2], the IC50 Ratio (vs PYY(3-36)) was determined as 4.

As to “Ac-[Ala26, Ile28,31, Arg(Me)35]-PYY(22-36) (peptide)”, the GBA EC50 Ratio (vs PYY(3-36)), [35S]GTPγS in experiment [1] was 13. Also, the IC50 Ratio (vs PYY(3-36)) in experiment [2] came out at 50.

Take “[N(2-hydroxyethyl)Gly23, D-Pro24, Cha27,28,36, Aib31]-PYY(23-36) (peptide)”: the GBA EC50 Ratio (vs PYY(3-36)), [35S]GTPγS in experiment [1] was determined as 1.2. Moreover, in experiment [2], the IC50 Ratio (vs PYY(3-36)) worked out at 2.

For the molecule “Ac-[D-Pro24, Pya(4)26, Cha27,36, Aib28,31, Lys30]-PYY(23-36) (peptide)”, in experiment [1], the GBA EC50 Ratio (vs PYY(3-36)), [35S]GTPγS worked out at 1.3. Further, the IC50 Ratio (vs PYY(3-36)) in experiment [2] was 1.8.

B1: 4-Aminomethylbenzoyl-[Ala26, Ile28,31, Tyr(Me)36]-PYY(25-36) (peptide)
peptide: [4Amb]RAYINLITRQR[Tyr(Me)]-NH2
modifications: N-terminus assumed
SMILES: CC[C@H](C)[C@H](NC(=O)[C@H](Cc1ccc(O)cc1)NC(=O)[C@H](C)NC(=O)[C@H](CCCNC(=N)N)NC(=O)c1ccc(CN)cc1)C(=O)N[C@@H](CC(N)=O)C(=O)N[C@@H](CC(C)C)C(=O)N[C@H](C(=O)N[C@H](C(=O)N[C@@H](CCCNC(=N)N)C(=O)N[C@@H](CCC(N)=O)C(=O)N[C@@H](CCCNC(=N)N)C(=O)N[C@@H](Cc1ccc(OC)cc1)C(N)=O)[C@@H](C)O)[C@@H](C)CC
notes: also called compound No. 7
Take B1: the “IC50 Ratio (vs PYY(3-36))” value in experiment [3] was found to be 5 ratio. For the same molecule, the “GBA EC50 Ratio (vs PYY(3-36)), [35S]GTPγS” value in experiment [4] was determined as 4.7 ratio.

B2: Amidino-[Gly23, Pic(4)24, Cha27,36, Ile 28,31, Trp30]-PYY(23-36) (peptide)
peptide: Amidino-G[Inp]RH[Cha]INWITRQR[Cha]-NH2
SMILES: CC[C@H](C)[C@H](NC(=O)[C@H](CC1CCCCC1)NC(=O)[C@H](Cc1c[nH]cn1)NC(=O)[C@H](CCCNC(=N)N)NC(=O)C1CCN(C(=O)CNC(=N)N)CC1)C(=O)N[C@@H](CC(N)=O)C(=O)N[C@@H](Cc1c[nH]c2ccccc12)C(=O)N[C@H](C(=O)N[C@H](C(=O)N[C@@H](CCCNC(=N)N)C(=O)N[C@@H](CCC(N)=O)C(=O)N[C@@H](CCCNC(=N)N)C(=O)N[C@@H](CC1CCCCC1)C(N)=O)[C@@H](C)O)[C@@H](C)CC
notes: also called compound No. 96
With B2, the “IC50 Ratio (vs PYY(3-36))” value in experiment [3] stood at 1.9 ratio. In experiment [4], the “GBA EC50 Ratio (vs PYY(3-36)), [35S]GTPγS” value was 1.1 ratio.
